Data published in the supplement of paper PMC7877785.
± gives the uncertainty stated by the source.

Experiment: self-splicing fitness, log relative to wild type (ln ratio); higher = more splicing; Tetrahymena group I intron in knt gene, E. coli kanamycin selection, DiMSum; sequences stand for … in CUCUCU…GGAGGGAAAAGUUAUCAGGCAUGCACCUGGUAGCUAGUCUUUAAACCAAUAGAUUGCAUCGGUUUAAAAGGCAAGACCGUCAAAUUGCGGGAAAGGGGUCAACAGCCGUUCAGUACCAAGUCUCAGGGGAAACUUUGAGAUGGCCUUGCAAAGGGUAUGGUAAUAAGCUGACGGACAUGGUCCUAACCACGCAGCCAAGUCCUAAGUCAACAGAUCUUCUGUUGAUAUGGAUGCAGUUCACAGACUAAAUGUCGGUCGGGGAAGAUGUAUUCUUCUCAUAAGAUAUAGUCGGACCUCUCCUUAAUGGGAGCUAGCGGAUGAAGUGAUGCAACACUGGAGCCGCUGGGAACUAAUUUGUAUGCGAAAGUAUAUUGAUUAGUUUUGGAGUACUCGUGGUCG
Outline: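 Fitness was computed with DiMSum as the error-weighted combination of replicate fold changes, kanamycin versus none, each normalised to wild type. The library randomised all eight intron nucleotides of the P1ex region, with the intron placed in the knt kanamycin-resistance gene on pET-22b(+) in E. coli BL21(DE3). Six replicate transformations were grown overnight at 37°C or 30°C on LB agar with or without 25 μg/mL kanamycin, plus 100 μg/mL carbenicillin, 50 μM IPTG and 0.2% rhamnose. Pooled colonies were amplicon-sequenced on an Illumina HiSeq 2500.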

Sequence | self-splicing fitness (ln) (30 °C) | self-splicing fitness (ln) (37 °C)
GGUUAGCAAUAUUACGGCUG | -0.585 ± 0.16 | 0.214 ± 0.28
CUUCAGCAAUAUUACGCUGG | -3.83 ± 0.21 | -2.15 ± 0.14
GGUAAGCAAUAUUACGUGCC | -3.17 ± 0.39 | -3.07 ± 0.38
CAGUAGCAAUAUUACGAUCA | -1.67 ± 0.24 | -2.04 ± 0.32
AUAGAGCAAUAUUACGUAUA | -2.1 ± 0.19 | -0.371 ± 0.21
GGUUAGCAAUAUUACGCCGA | -1.52 ± 0.25 | -0.734 ± 0.23
ACCUAGCAAUAUUACGGAGC | -2.67 ± 0.12 | -1.28 ± 0.14
CAGUAGCAAUAUUACGAAAA | -3.58 ± 0.47 | -1.8 ± 0.32
CUCCAGCAAUAUUACGCCCG | -2.56 ± 0.17 | -0.904 ± 0.19
AGGAAGCAAUAUUACGCGCG | -0.598 ± 0.21 | -0.0648 ± 0.26
GGAAAGCAAUAUUACGGUAU | -1.82 ± 0.11 | -1.31 ± 0.13
ACAUAGCAAUAUUACGAGUC | -3.91 ± 0.27 | -3.33 ± 0.25
GGGUAGCAAUAUUACGUAAG | -1.46 ± 0.14 | -0.429 ± 0.15
AAUGAGCAAUAUUACGGGAC | -2.96 ± 0.26 | -1.36 ± 0.25
UGGAAGCAAUAUUACGCUAU | -2.52 ± 0.18 | -2.72 ± 0.29
UGCGAGCAAUAUUACGAAGU | -3.37 ± 0.3 | -0.334 ± 0.29
AUCUAGCAAUAUUACGAGUC | -4.11 ± 0.36 | -2.19 ± 0.25
GCGUAGCAAUAUUACGUAAC | -3.58 ± 0.27 | -0.0467 ± 0.15
ACGGAGCAAUAUUACGCGGA | -3.41 ± 0.37 | -1.54 ± 0.26

Sequence | self-splicing fitness (ln) (30 °C) | self-splicing fitness (ln) (37 °C)
AACCAGCAAUAUUACGGGGG | -2.43 ± 0.095 | -1.02 ± 0.091
GAAUAGCAAUAUUACGUUAC | -1.97 ± 0.13 | -1.6 ± 0.21
AACUAGCAAUAUUACGAGAU | -2.52 ± 0.13 | -1.65 ± 0.14
GAACAGCAAUAUUACGUCGA | -0.66 ± 0.066 | -0.117 ± 0.076
GUGAAGCAAUAUUACGAUUU | -0.586 ± 0.051 | 0.316 ± 0.091
GUGCAGCAAUAUUACGACUG | -4.5 ± 0.39 | -2.84 ± 0.28
UUGGAGCAAUAUUACGAAGA | -2.83 ± 0.41 | -2.53 ± 0.49
UACCAGCAAUAUUACGAGUG | -0.127 ± 0.052 | -0.0711 ± 0.067
GCUCAGCAAUAUUACGGCGU | -0.15 ± 0.062 | 0.324 ± 0.082
UACAAGCAAUAUUACGGCGU | -1.14 ± 0.11 | -0.846 ± 0.098
UCAGAGCAAUAUUACGGAGA | -2.08 ± 0.15 | -1.93 ± 0.17
GUAGAGCAAUAUUACGGUUG | -2.62 ± 0.15 | -1.13 ± 0.22
UGACAGCAAUAUUACGCUCA | -0.115 ± 0.11 | -0.155 ± 0.1
UCUAAGCAAUAUUACGGCGC | -1.94 ± 0.34 | -1.43 ± 0.26
AUGUAGCAAUAUUACGGGGU | -2.77 ± 0.23 | -3.12 ± 0.3
UCUCAGCAAUAUUACGACAU | -2.714 ± 0.018 | -1.49 ± 0.034
AUUUAGCAAUAUUACGAUUU | -0.123 ± 0.12 | 0.23 ± 0.13
CGCAAGCAAUAUUACGCGUC | -3.7 ± 0.37 | -3.31 ± 0.35
